Tested on: WI-38 lung fibroblasts
Assay: S1P-induced differentiation into myofibroblasts (alpha-SMA immunoblot)
Assay type: cell-based
Settings: 1 ug/mL antibody, 12-24 hr
Description: FIG. 7. […] See Example 7, below, for experimental details. […] In these experiments, fibroblasts were serum-starved and then treated with 0, 0.1, 0.5, or 1 μM S1P+/−1 μg/mL SPHINGOMAB for 12-24 hr. […] SPHINGOMAB neutralized each of these S1P effects. SPHINGOMAB reduced perivascular fibrosis in vivo in a murine model of a permanent myocardial infarction (E).
S1P makes profound contributions to wound healing by activating fibroblast migration, proliferation and collagen production; SPHINGOMAB neutralizes these effects. Several studies using multiple types of fibroblasts confirm S1P's ability to promote wound healing: 1) S1P increased Swiss-3T3 fibroblast proliferation as measured by ^3H-thymidine incorporation using standard methods (FIG. 7A); 2) S1P promoted the migration of cardiac fibroblasts in a standard scratch wound healing assay. […] In each of these assays, SPHINGOMAB neutralized S1P's. It is anticipated that ocular fibroblasts would respond similarly to S1P and SPHINGOMAB.

B1: LT1002: murine anti-S1P monoclonal antibody, IgG1 kappa, hybridoma clone 306D326.26 (antibody, listed as Mus sp., V domains shown)
VH: QAHLQQSDAELVKPGASVKISCKVSGFIFIDHTIHWMKQRPEQGLEWIGCISPRHDITKYNEMFRGKATLTADKSSTTAYIQVNSLTFEDSAVYFCARGGFYGSTIWFDFWGQGTTLTVS
VL: ETTVTQSPASLSMAIGEKVTIRCITTTDIDDDMNWFQQKPGEPPNLLISEGNILRPGVPSRFSSSGYGTDFLFTIENMLSEDVADYYCLQSDNLPFTFGSGTKLEIK
S1P-induced differentiation of WI-38 fibroblasts into myofibroblasts: neutralized

From patent publication US8444970B2, “Compositions and methods for treating ocular diseases and conditions” (Lpath, Inc., priority 2006, dated 2013)
